From publication PMC9791040, “CtrA activates the expression of glutathione S-transferase conferring oxidative stress resistance to Ehrlichia chaffeensis” (Frontiers in Cellular and Infection Microbiology, 2022)

What was measured:
[1] = tested on: T1, GST-rCtrA (Ehrlichia chaffeensis), ORF:1c7d897d; assay: EMSA
T1 sequence: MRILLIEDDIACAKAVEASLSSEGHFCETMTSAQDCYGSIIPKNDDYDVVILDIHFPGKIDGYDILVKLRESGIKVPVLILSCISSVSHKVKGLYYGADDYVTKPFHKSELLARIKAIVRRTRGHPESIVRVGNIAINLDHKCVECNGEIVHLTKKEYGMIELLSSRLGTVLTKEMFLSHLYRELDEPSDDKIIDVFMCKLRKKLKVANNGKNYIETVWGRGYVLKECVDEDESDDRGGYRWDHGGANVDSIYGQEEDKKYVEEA

NCC(=O)O = assay: inorganic phosphate formation, ascorbic acid-molybdate, OD750; type: biochemical, Ehrlichia chaffeensis; settings: 10 mM Na3ATP, 5 mM gamma-glutamylcysteine, 20 mM MgCl2, 50 mM KCl, 2 mM EDTA, 2.5 mM DTT, 100 mM Tris-HCl pH 8.2, 37°C, 30 min
From the text: inorganic phosphate formation, ascorbic acid-molybdate, OD750 on rGshB (E. chaffeensis GshB)

[2] = substrate: N[C@@H](CCC(=O)O)C(=O)O; assay: as above; type: biochemical, Ehrlichia chaffeensis; settings: 5 mM ATP, 10 mM L-alpha-aminobutyric acid, 20 mM MgCl2, 50 mM KCl, 2 mM EDTA, 100 mM Tris-HCl pH 8.0, 37°C, 30 min
From the text: inorganic phosphate formation, ascorbic acid-molybdate, OD750 on SUMO-rGshA (E. chaffeensis GshA)

## ATATAACCTAATAGTGACAAATAAATTAACAATAGTAGAAGTGTCATATAAAAGCAAGTCAGAATATAAATTTTTGTATAAAATATCGGTAACTTTTGTAAGGAAAATTTAATATATTACGTCAGGTAAGTAATAGCAAAAAAACTGGTTAAGTATAGTATCATGTGTAAAGGTGAGAAAAACAGCACTTATAAACTAGTCCCCCCCCCCCCCCTCTTATTGCTACATTCTTTTGCCACTATTTTTATTTACCTGCAGCA (double strand) [p28 promoter probe, 260 bp]
[1]
  binding: no binding

## rGshB (E. chaffeensis GshB) (Ehrlichia chaffeensis str. Arkansas)
NCC(=O)O
  Km: 940 ± 320 µM
  Vmax: 0.63 µmol/min/mg

B1: SUMO-rGshA (E. chaffeensis GshA) (Ehrlichia chaffeensis str. Arkansas) (protein)
chain: MTVIIDTLNDILTKYKLDIENWFFNKFTKYNPVLNISVDLRVSDYKIAPVDTNIFPAGYNNFTEQSQIYASRLLREYVVNYANCSKILIIAENHTRNLKYIDSLIVLKNIVNNAGFVVEVGICNINQNIELISSTGRVINCLCLTNDNGVLRAGCRFIPDLILVNNDMTSGIPEVLQGLKYQSIMPSLFLGWFNRSKSNHFSIYKKLSKEFCESFNIDPWLISAFFSSCSNICFFNSQGIDDIANEVDVVISKIRNKFQLYSIKEQPYVFVKADNGTYGMGILVAYCGDDILMLNRKKRNKMKKIKDGNVVSSVIIQEGITTREIFNGYVAEPLVYFIGHTPSCYLYRYHSVKDRFSNLNSVGCDFIDISYKQQDILYWNIIGKIAVLAAAIEMHEISNVNVMEQNCLLS
notes: tag kept
[2]
  Km: 1030 ± 20 µM
  Vmax: 0.52 µmol/min/mg
